The values that follow come from patent US20230047413A1 (Janssen / Centocor, published 2023).

Broadly, the koff is the first-order rate constant of dissociation. Low readings indicate a long-lived complex, high ones a short-lived complex. The term kon denotes the second-order rate constant of association. The EC50 is the concentration that produces a half-maximal response. The EC50 (read off the curve) is the concentration at which the effect is half-maximal.

Assay [1] addresses T1, Peptide-8 (human, phosphothreonine 212 (tau 2N4R numbering); SCBiot and dPEG4 at the N-terminus; amide at the C-terminus).
T1 construct: also called pT212-tau peptide (Peptide-8)
The assay is described as follows: SPR ProteOn, mAb captured by anti-human Fc, peptide as analyte. As to the method: (§1) A subset of HFA-PT3 monoclonal antibody variants, selected based on biophysical characterization and ELISA binding to PHF, were analyzed by Surface Plasmon Resonance (SPR) with a ProteOn XPR36 for binding to the following phosphopeptides: pT212/pT217-tau peptide (Peptide-2, SEQ ID NO: 48) and pT212-tau peptide (Peptide-8, SEQ ID NO: 54). All experiments were performed at 25° C. using PBST, pH 7.4, (Bio-Rad Cat#176-2720) as both running buffer and sample dilution buffer.
(§2) Monoclonal antibody/Peptide binding. […] Anti-human IgG was amine-coupled to the chip surface using EDC/NHS, then washed with ethanolamine. Antibodies were diluted to 2 μg/mL in PBST and injected on the surface for 5 min at 30 μL/min to achieve a maximum density of 900-1000 RU. Peptides were injected as analytes at 60 μL/min for 3 min, followed by 5 min dissociation. Peptide-2 was diluted in PBST to generate a three-fold concentration series (0-30 nM) and measured in duplicate. Single measurements of monoclonal antibody binding to Peptide-8 were recorded over the concentration range 0-100 nM.
(§3) Data were double referenced by subtraction of the interspot response, and the curves generated by the buffer only injection. The chip surface was regenerated with 0.85% phosphoric acid, followed by PBST injection before the next antibody titration injection. Data processing and analysis were performed using instrument software. The data were fit using a simple Langmuir 1:1 binding model.

The target in assay [2] is T2, Peptide-2 (human, phosphothreonine 212, phosphothreonine 217 (tau 2N4R numbering); short chain biotin (SCBiot) and dPEG4 at the N-terminus; amide at the C-terminus).
T2 construct: also called pT212/pT217-tau peptide (Peptide-2)
As to the kind of experiment: SPR ProteOn, mAb captured, peptide as analyte. The procedure:
as §1, §2, §3

The target in assay [3] is T2, Peptide-2. The assay is described as follows: SPR ProteOn, mAb captured, peptide as analyte; range of n=2; upper end of n=2 range. As to the method: as §1, §2, §3
The target in assay [4] is T3, tau phospho-peptide of the direct ELISA of Example 11.
T3 construct: also called pT217 peptide; pT212/pT217 peptide
The assay is described as follows: direct ELISA, peptide coated. As to the method: (§4) Binding to tau phospho-peptide was analysed by ELISA where peptide (10 ng/mL) was directly coated to the plate overnight. […] After incubation with antibodies, plates were washed and 50 μL per well of HRPO labelled anti-Fab antibody (Jackson Immunoresearch laboratories) (diluted 1:10000 in blocking buffer). After another washing step detection was performed with “One step” TMB (Thermo Scientific) according to the manufacturers' instructions. Plates were analysed in EnVision® 2102 Multilabel Reader (Perkin Elmer, Waltham, Mass., USA). Binding curves were generated using GraphPad Prism7.0 software.
Background: ELISA stands for enzyme-linked immunosorbent assay.

The target of assay [5] is T4, PHF-tau (paired helical filament tau isolated from Alzheimer's disease brain) (human, UniProt P10636-8 2-441, limits assumed, hyper-phosphorylated, aggregated; sites not listed for the preparation).
T4 construct: also called enriched PHF-tau; ePHF-tau
As to the kind of experiment: SPR ProteOn, PHF-tau capture-coupled via HT7, bivalent model. The procedure: (§5) A subset of HFA-PT3 monoclonal antibodies was tested for binding to PHF-tau isolated from Alzheimer's disease brain. All interactions were studied at 25° C. using PBS pH 7.4, supplemented with 3 mM EDTA, and 0.005% Tween 20 as running or system buffer. HT7 (Pierce, catalog #MN1000), a mouse anti-tau antibody, was used as a positive control.
(§6) The interaction of anti-tau monoclonal antibodies with PHF-tau was analyzed by ProteOn using a biosensor surface prepared by capture-coupling PHF-tau using HT7 as the capture reagent. PHF-tau was prepared by 2-times centrifugation at 5000×g at 5° C. for 10 min; the supernatant from the second centrifugation was then diluted 1/40 in running buffer. To prepare the chip, HT7 was covalently immobilized to the surface of a GLC (ProteOn) sensor chip using the manufacturer's instructions for amine-coupling chemistry (˜5000 response units (RU)). The coupling buffer was 10 mM sodium acetate, pH 4.5. After HT7 immobilization, PHF-tau was injected and captured (˜300 RU) by HT7. After capture, PHF-tau was covalently immobilized to the sensor chip by activation of the chip using the manufacturer's instructions for amine-coupling chemistry. Remaining reactive sites were blocked by the injection of ethanolamine. After preparation and stabilization of the PHF-tau-modified surface and reference surface (containing no antigen), the anti-tau antibodies were diluted in the running buffer and injected in solution (0.12-75 nM in 5-fold dilutions). The association was monitored for 3 minutes (120 μL injected at 40 μL/min). The dissociation was monitored for 15 minutes. Regeneration of the sensor surface was performed using 10 mM Gly pH 2.0. The data for monoclonal antibodies were fit using a bivalent binding model where the apparent affinity (KD) was reported as the ratio of koff/kₒₙ. A Langmuir 1:1 binding model was used for kinetics analysis of Fabs.

For assay [6], the target named is T2, Peptide-2. The assay is described as follows: SPR ProteOn, mAb captured, peptide as analyte; range of n=2. The procedure: as §1, §2, §3
The target in assay [7] is T4, PHF-tau (paired helical filament tau …). As to the kind of experiment: SPR ProteOn, PHF-tau capture-coupled via HT7, bivalent model. As to the method:
Affinity matured monoclonal antibodies were tested for binding to PHF-tau isolated from Alzheimer's disease brain.
A GLC sensor chip was covalently immobilized with a mouse anti-tau antibody, HT7 (ThermoFisher, catalog# MN1000) using the vendor recommended protocol for amine-coupling chemistry (˜5000 response units, RU). The coupling buffer was 10 mM, pH 4.5 sodium acetate. PHF-tau was prepared by 2-times centrifugation at 5000×g in 5° C. for 10 min. […] After capture-coupling, the surface was activated and deactivated to generate a homogenous PHF-tau surface for antibody binding studies. The anti-tau antibodies and their Fabs (prepared in running buffer, 0.024-75 nM at 5-fold dilutions) were injected at 50 μL/min over the PHF-tau surface to measure binding. The association and dissociation profiles were monitored for 4 minutes and 2 hours, respectively. After dissociation, the sensor chip was regenerated using multiple injections of 10 mM Glycine pH 2.0 and the running buffer. A reference surface (without any PHF-tau) was used to monitor non-specific binding of the injected mAbs or Fabs. HT7 antibody was used as a positive control. The binding sensorgrams for mAbs were fit using a bivalent binding model where the apparent affinity or avidity-driven binding (KD) was reported as the ratio of off-rate and on-rate (koff/kₒₙ). A 1:1 Langmuir binding model was used for kinetics analysis of Fabs.
The source holds these as a separate data set.

The target in assay [8] is T3, tau phospho-peptide of the direct ELISA …. The assay is described as follows: direct ELISA on plate-coated tau phospho-peptide (10 ng/mL), detection with HRPO-labelled anti-Fab antibody. The procedure: as §4
Assay [9] deals with T4, PHF-tau (paired helical filament tau …). The assay is described as follows: SPR ProteOn, PHF-tau capture-coupled via HT7, 1:1 model. The procedure:
as §5, §6

For assay [10], the target named is T2, Peptide-2. As to the kind of experiment: SPR ProteOn, peptide captured, Fab as analyte; range of n=2; upper end of n=2 range. As to the method:
as §1
(§7) Fab/peptide binding. Biotinylated peptide was captured on a neutravidin-coated NLC biosensor chip pre-conditioned with PBST, and Fab was flowed over the surface to measure kinetic parameters. Approximately 5-10 RU of peptide was captured on the chip surface by diluting peptide to 10 ng/mL in PBST and injecting over the flow channels at 30 μL/min for 100 s. Serial dilutions of PT3 Fab (1.1 nM to 90 nM) were injected at 60 μL/min for 3 minutes (association phase), followed by 300 s of buffer only (dissociation phase).
as §3

Assay [11] concerns the target T4, PHF-tau (paired helical filament tau …). As to the kind of experiment: SPR ProteOn, PHF-tau on chip.
In assay [12] the target is T2, Peptide-2. As to the kind of experiment: SPR ProteOn, peptide captured, Fab as analyte. As to the method: as §1, §7, §3
Assay [13] has as its target T2, Peptide-2. As to the kind of experiment: SPR ProteOn, peptide captured, Fab as analyte; range of n=2. The procedure:
as §1, §7, §3

In assay [14] the target is T1, Peptide-8. As to the kind of experiment: SPR ProteOn, mAb captured by anti-human Fc, peptide as analyte; poor data fit. As to the method:
as §1, §2, §3

T4 sequence (P10636 other isoform, or with tags, fused parts or gaps limits assumed): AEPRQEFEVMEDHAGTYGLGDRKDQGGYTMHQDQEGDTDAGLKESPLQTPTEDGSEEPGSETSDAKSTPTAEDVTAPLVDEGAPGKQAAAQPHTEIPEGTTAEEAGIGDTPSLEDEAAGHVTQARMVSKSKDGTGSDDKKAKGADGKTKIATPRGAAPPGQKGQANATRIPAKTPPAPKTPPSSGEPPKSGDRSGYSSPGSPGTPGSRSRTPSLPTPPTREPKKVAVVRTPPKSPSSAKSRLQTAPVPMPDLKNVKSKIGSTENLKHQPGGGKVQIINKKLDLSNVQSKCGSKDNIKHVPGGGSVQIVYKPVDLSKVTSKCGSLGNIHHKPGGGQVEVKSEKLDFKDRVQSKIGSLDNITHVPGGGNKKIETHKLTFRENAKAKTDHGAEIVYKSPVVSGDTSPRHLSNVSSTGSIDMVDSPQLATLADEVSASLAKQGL
T1 sequence (peptide, as listed by the source): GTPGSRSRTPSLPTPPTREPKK

B1: B296 (antibody, human IgG1, kappa, V domains shown)
VH: QVQLVESGGGVVQPGRSLRLSCAASGFTFSSYAMSWVRQAPGKGLEWVASISKGGNTYYADSVKGRFTISRDNSKNTLYLQMNSLRAEDTAVYYCARGWGDYGWFAYWGQVTLVTVSS
VL: DIQMTQSPSSLSASVGDRVTITCKASQDINRYLNWFQQKPGKAPKSLIYRANRLLDGVPSRFSGSGSGTDFTLTISSLQPEDFATYYCLQYDEFPLTFGQGTKLEIKR
notes: Humanized PT3, human IgG1/kappa; also called VH92/VL77; HFA-PT3
With B1, the Kd was 26800 pM with Peptide-8 [1]; 190 pM with Peptide-2 [2]; 27 pM in assay [5]; 125 to 255 pM with Peptide-2 [6]; 6.2 pM in assay [7]. Besides, the koff was determined as 0.023 s⁻¹ with Peptide-8 [1]; 0.000826 s⁻¹ with Peptide-2 [2]; 0.000863 s⁻¹ with Peptide-2 [3]; 2.93e-05 s⁻¹ in assay [5]; 0.000788 s⁻¹ in the assay with Peptide-2 [6]; 1.17e-05 s⁻¹ in assay [7]. The kon with Peptide-8 [1] worked out at 856000 M⁻¹ s⁻¹; with Peptide-2 [2] it was 5e+06 M⁻¹ s⁻¹; in the assay with Peptide-2 [3] it was 6.9e+06 M⁻¹ s⁻¹; in assay [5], 1.07e+06 M⁻¹ s⁻¹; in the assay with Peptide-2 [6] it was 3.1e+06 M⁻¹ s⁻¹; in assay [7], 1.89e+06 M⁻¹ s⁻¹. The EC50 in assay [4] came to 433 pM. The “EC50 (read off the curve)” value in assay [8] is around 300 pM.

B2: B326 (Fab of B252) (Fab, V domains shown)
VH: QVQLVESGGGLVKPGGSLRLSCAASGFTFSSYAMSWIRQAPGKGLEWVSSISKGGNTYYADSVKGRFTISRDNAKNSLYLQMNSLRAEDTAVYYCARGWGDYGWFAYWGQVTLVTVSS
VL: DIVMTQTPLSSPVTLGQPASISCKASQDINRYLNWLQQRPGQPPRLLIYRANRLLDGVPDRFSGSGAGTDFTLKISRVEAEDVGVYYCLQYDEFPLTFGQGTKLEIK
notes: also called B252 Fab
B2: the Kd in assay [9] was 224 pM; with Peptide-2 [12] it was 493 pM; in the assay with Peptide-2 [13], 387 to 599 pM. Further, the off-rate (koff) in assay [9] worked out at 0.00023 s⁻¹; with Peptide-2 [10], 0.000353 s⁻¹; with Peptide-2 [12], 0.000329 s⁻¹; with Peptide-2 [13], 0.000304 s⁻¹. Further, the kon is 1.02e+06 M⁻¹ s⁻¹ in assay [9], 912000 M⁻¹ s⁻¹ in the assay with Peptide-2 [10], 710000 M⁻¹ s⁻¹ with Peptide-2 [12] and 507000 M⁻¹ s⁻¹ in the assay with Peptide-2 [13]. Also, the “fold weaker KD than the mouse PT3 parent Fab B187” value in assay [11] is 3.3 fold.

B3: B280 (antibody, human IgG1, V domains shown)
VH: EVQLLESGGGLVQPGGSLRLSCAASGFTFSSYAMSWVRQAPGKGLEWVSSISKGGNTYYADSVKGRFTISRDNSKNTLYLQMNSLRAEDTAVYYCAKGWGDYGWFAYWGQVTLVTVSS
VL: DIVMTQTPLSSPVTLGQPASISCKASQDINRYLNWLQQRPGQPPRLLIYRANRLLDGVPDRFSGSGAGTDFTLKISRVEAEDVGVYYCLQYDEFPLTFGQGTKLEIK
notes: Humanized (HFA) PT3 variant, human IgG1/kappa; also called VH91/VL80
Take B3: the Kd was 769 pM with Peptide-2 [2], 55 pM in assay [5], 418 to 1120 pM in the assay with Peptide-2 [6] and 34700 pM with Peptide-8 [14]. Also, the koff with Peptide-2 [2] amounted to 0.00274 s⁻¹; in the assay with Peptide-2 [3], 0.00301 s⁻¹; in assay [5], 5.63e-05 s⁻¹; in the assay with Peptide-2 [6], 0.00246 s⁻¹; with Peptide-8 [14] it was 0.00757 s⁻¹. In addition, the kon with Peptide-2 [2] is 4.71e+06 M⁻¹ s⁻¹; with Peptide-2 [3], 7.2e+06 M⁻¹ s⁻¹; in assay [5] it was 1.02e+06 M⁻¹ s⁻¹; with Peptide-2 [6], 2.21e+06 M⁻¹ s⁻¹; in the assay with Peptide-8 [14], 218000 M⁻¹ s⁻¹.

B4: B809 (antibody, human IgG1, kappa, V domains shown)
VH: QVQLVESGGGVVQPGRSLRLSCAASGFTFTSYAMSWVRQAPGKGLEWVASITKGGNTYYADSVKGRFTISRDNSKNTLYLQMNSLRAEDTAVYYCARGWGIYGWFAYWGQVTLVTVSS
VL: DIQMTQSPSSLSASVGDRVTITCKASQDINRYLNWFQQKPGKAPKSLIYRANRLLDGVPSRFSGSGSGTDFTLTISSLQPEDFATYYCLQYDEFPLTFGQGTKLEIKR
notes: also called PT1B809
With B4, in [11], the “fold improvement in on-rate compared to the parent antibody (B296)” value turned out to be 3 fold. In [4], this molecule had an EC50 of 91.7 pM. Besides, in [7], the Kd is 2 pM, the koff came out at 1.27e-05 s⁻¹ and the kon was determined as 6.45e+06 M⁻¹ s⁻¹. Besides, in [8], the 50% effective concentration (EC50 (read off the curve)) is around 60 pM.
